# Data: paper PMC4866688, “Trypanosoma brucei DHFR-TS Revisited: Characterisation of a Bifunctional and Highly Unstable Recombinant Dihydrofolate Reductase-Thymidylate Synthase” (PLoS Neglected Tropical Diseases, 2016)
# B1: Trypanosoma brucei dihydrofolate reductase-thymidylate synthase, Tsf tag removed with TEV protease (enzyme, UniProt Q27783 1-527, looked up)
# chain: MLSLTRILRKKIPVHELAGKISRPPLRPFSVVVASDEKGGIGDGGTIPWEIPEDMQYFRRVTTNLRGKNVKPSPSKRNAVVMGRKTWDSLPPKFRPLSNRLNVVLSRSATKEQLLAGIPDPIKRAEAANDVVAVNGGLEDALRMLVSKEHTSSIETVFCIGGGTIYKQALCAPCVNVLQAIHRTVVRPASNSCSVFFDIPAAGTKTPEGLELVRESITDERVSTGAGGKKYQFEKLVPRNSEEEQYLNLVGRIIDEGCTKCDRTGVGTRSLFGAQMRFSLRNNRLPLLTTKRVFWRGVCEELLWFLRGETNAKLLSDKGIHIWDGNGSRAFLDSRGLTDYDEMDLGPVYGFQWRHFGADYISCKVDSEGKGVDQIANIVKSLIENPDDRRMICTAWNPAALPRMALPPCHMMAQFYVSNGELSCMLYQRSCDMGLGVPFNIASYALLTFLMAKASGLRPGELVHTLGDAHVYSNHVEPCRKQLKRVPRPFPFIVFKQDKEFLEDFQESDIEVIDYSPYPVISMEMAV
# notes: bifunctional dihydrofolate reductase-thymidylate synthase of Trypanosoma brucei strain 427; N-terminal DHFR domain (ends at Arg 239), linker, C-terminal TS domain; also called TbDHFR-TS; cleaved TbDHFR-TS; not shown: Tsf (E. coli elongation factor Ts), N-terminal, cleaved; His6, internal (between Tsf and the TEV site), cleaved
# Target: the molecule itself
# Assay: SEC; Superdex 200 column, Bio-Rad gel filtration standards; purified cleaved enzyme, DHFR activity and absorbance at 280 nm followed
protein,measurement,value
B1,stoichiometry N,2
